Measured values published in patent publication US10077295B2, “Glycoproteins having lipid mobilizing properties and therapeutic uses thereof” (Aston University, priority 2010, dated 2018).

Columns and labels:
[1] = test system: murine epididymal adipocytes; assay: Lipolytic assay (glycerol release) in murine adipocytes; type: cell-based, mouse
Protocol: Cell Culture and Purification of ZAG. Single-cell suspensions of white adipocytes were prepared from minced adipose deposits by incubation at 37° C. for 2 h in Krebs-Ringer biocarbonate buffer containing 1.5 mgml^−1 collagenase, and 4% bovine serum albumin under an atmosphere of 95% oxygen: 5% CO2 as previously described. For time-course studies adipocytes were suspended in DMEM containing 10% fetal calf serum at a concentration of 10^5 cells ml^−1 and maintained under an atmosphere of 10% CO2 in air at 37° C. Human 293 cells transfected with a plasmid containing human ZAG were seeded at a concentration of 10^5 cells ml^−1 in FreeStyle medium and maintained under an atmosphere of 5% CO2 in air at 37° C. Maximal protein levels (16 μgml^−1) were obtained after 14 days of culture. The media (200 ml) was then centrifuged at 700 g for 15 min to remove cells and concentrated into a volume of 1 ml of sterile PBS using an Amicon Ultra-15 centrifugal filter with a 10 kDa cut-off After measurement of the protein concentration of the sample (about 2 mg) it was added to 2 g DEAE cellulose suspended in 20 ml of 10 mM Tris, pH8.8 and stirred at 4° C. for 2 h. ZAG being negatively charged binds to the DEAE cellulose, which was sedimented by centrifugation (1500 g for 15 min), and eluted by stirring with 20 ml 10 mM Tris, pH8.8 containing 0.3M NaCl for 30 min at 4° C. The supernatant was washed and concentrated to a volume of 1 ml in sterile PBS using the Amicon centrifugal filter.
Lipolytic assay. Samples to be assayed were incubated with 10^5 to 2×10^5 adipocytes for 2 h in 1 ml Krebs-Ringer bicarbonate buffer, pH 7.2. The concentration of glycerol released was determined enzymatically by the method of Wieland (Wieland, O. Glycerol UV method. In Methods of Enzymatic Analysis (ed. Bergmeyer, H.U.) (Academic Press, London, UK, pp 1404-1409, 1974)). Control samples containing adipocytes alone were analysed to determine the spontaneous glycerol release. Activity was expressed as μmol glycerol released/10^5 adipocytes/2 h.

ob/ob mice [2] = assay: Glucose tolerance test in ob/ob mice after 3 days of ZAG; type: in vivo, mouse
Excerpt: FIG. 2A is a graphical diagram showing glucose tolerance of ob/ob mice treated with ZAG. Plasma glucose levels in ob/ob mice in the fed state either treated with ZAG (▪) or PBS (♦) for 3 days after […]. p<0.001 from PBS. Blood samples were removed from the tail vein at intervals after glucose administration and used for the measurement of glucose and insulin.
FIG. 2B is a graphical diagram showing plasma insulin levels in ob/ob mice treated with ZAG after oral administration of glucose (1 g/kg). p<0.001 from PBS.
To investigate this, a glucose tolerance test was performed, on fed animals, after 3 days of ZAG administration (FIG. 2A). […] The glucose uptake in gastrocnemius muscle of ZAG treated mice was greater than the response to insulin in non-treated animals.

murine myotubes = assay: Murine myotubes subjected to high glucose: protein degradation, protein synthesis, ROS, pPKR; type: cell-based, mouse
Protocol: This utilizes murine myotubes subjected to high concentrations of glucose (10 or 25 mM). […] However the SR compound (i.e., SR59230A) can also act as a β-agonist, which it seemed to do in these experiments.
It has been shown that formation of reactive oxygen species (ROS) is important in protein degradation induced by high glucose load. […] High glucose also induces activation (phosphorylation) of PKR (FIG. 22A) and the subsequent phosphorylation of eIF2α (FIG. 22B) as is seen in skeletal muscle of ob/ob mice, which was also attenuated by ZAG.

[3] = test system: β3-AR, β1-AR and β2-AR expression; assay: Western blot of β-AR expression in tissues of ob/ob mice after 5 days ZAG; type: in vivo, mouse
Protocol: Western Blot Analysis. WAT, BAT, heart and gastrocnemius muscle were thawed, washed in PBS, and lysed in Phosphsafe™ Extraction reagent for 5 min at room temperature, followed by sonication at 4° C. The supernatant formed by centrifugation at 18,000 g for 5 min at 4° C. was used for Western blotting. Cytosolic protein (5 μg for UCP's and 20 μg for β-AR) was resolved on 12% sodium dodecylsulphate polyacrylamide gels by electrophoresis at 180V for about 1 h and transferred on to 0.45 μm nitrocellulose membranes, which had been blocked with 5% (w/v) non-fat dried milk (Marvel) in Tris-buffered saline, pH 7.5, at 4° C. overnight. Prior to adding the primary antibodies membranes were washed for 15 min in 0.1% Tween 20-buffered saline. Both primary and secondary antibodies were used at a dilution of 1:1000. Incubation was for 1 h at room temperature and development was by ECL. Blots were scanned by a densitometer to quantify differences.

ob/ob mice [4] = assay: Body weight loss by route of administration of ZAG in ob/ob mice; type: in vivo, mouse; conditions: for Body weight loss / % of i.v. loss over the same time: 50 ug/day
Protocol: The goal of the study was to compare the efficacy of ZAG via various routes of administration. Mice were orally administered 50 μg ZAG or PBS (control). The results of are shown in FIGS. 31, 32, 33 (8 day oral ZAG study); 36, 37, 40 (8 day oral ZAG plus propranolol study); and FIGS. 47, 48 (oral ZAG gavage study). As shown in these repeated studies, ZAG was unexpectedly shown to be effective in bringing about weight change when administered orally by simply mixing low doses of ZAG in the drinking water of mice without requiring systemic absorption of administered ZAG. Typical oral dosing of proteins, such as insulin, can require up to 10× (or mega dosing) the intravenous dose to achieve the same level of efficacy and such limited efficacy requires systemic absorption of such proteins.

ob/ob mice [5] = assay: Interval / long-term administration of ZAG in ob/ob mice (pilot study); type: in vivo, mouse
Protocol: While not wanting to be limited by theory, it may be that the subjects are receiving too much ZAG or that there is receptor desensitization as is seen with TNF. A pilot study was performed with 2 mice in each group to determine optimal scheduling of ZAG delivery.

[6] = 10 or 25 mM glucose, ZAG 25 μg/ml

B1: ZAG: recombinant full length human zinc-α2-glycoprotein (SEQ ID NO: 1) secreted by transfected HEK293F cells; lipid mobilizing factor (protein, listed as Homo sapiens)
chain: QENQDGRYSLTYIYTGLSKHVEDVPAFQALGSLNDLQFFRYNSKDRKSQPMGLWRQVEGMEDWKEDSQLQKAREDMETLKDIVEYYNDSNGSHVLQGRFGCEIENNRSSGAFWKYYYDGKDYIEFNKEIPAWVPFDPAAQITKQKWEAEPVYVQRAKAYLEEECPATLRKYLKYSKNILDRQDPPSVVVTSHQAPGEKKKLKCLAYDFYPGKIDVHWTRAGQVQEPELRGDVLHNGNGTYQSWVVVAVPPQDTAPYSCHVQHSSLAQPLVVPWEAS
- lipolytic effect in adipocytes from subcutaneous and visceral deposits ([1]; compared with epididymal adipocytes): considerably reduced
- lipolysis in epididymal adipocytes ([1]; mouse adipocytes): stimulated lipolysis
- effect of a single freezing and thawing cycle on lipolytic activity ([1]; murine epididymal adipocytes): destroyed
- potency at inducing lipolysis compared with isoprenaline ([1]; on a molar basis): more potent at inducing lipolysis than isoprenaline on a molar basis
- blood glucose levels in glucose tolerance test (ob/ob mice [2]; fed ob/ob mice, after 3 days of ZAG): only a small rise
- plasma insulin levels in glucose tolerance test (ob/ob mice [2]; ob/ob mice, 60 min of observation): significantly lower
- effect on depression of protein synthesis by high glucose (murine myotubes; [6]): completely attenuated
- effect on protein degradation stimulated by high glucose (murine myotubes; [6]): completely attenuated
- effect on glucose-induced phosphorylation of PKR and eIF2α (murine myotubes; myotubes): attenuated
- effect on increase in ROS produced by glucose (murine myotubes; myotubes): completely attenuates
- expression of β1-AR or β2-AR in gastrocnemius muscle or WAT [3]: no change in expression
- increase in β3-AR expression in BAT [3]: 89%
- increase in β3-AR expression in WAT [3]: 85%
- β3-AR expression in gastrocnemius muscle [3]: two-fold increase
- efficacy of lowering of urinary glucose, oral vs i.v. (ob/ob mice [4]; after 5 days of dosing): equally as good
- Body weight loss (ob/ob mice [4]; intraveneous, 20 Days): −9.0%
- Body weight loss (ob/ob mice [4]; oral-casein (casein with ZAG in drinking water), 8 Days): −3.4%
- % of i.v. loss over the same time (ob/ob mice [4]; oral-casein, 8 Days): 57%
- % of i.v. loss over the same time (ob/ob mice [4]; oral-casein, 20 Days): 76%
- Body weight loss (ob/ob mice [4]; oral-casein, 20 Days): −6.8%
- Body weight loss (ob/ob mice [4]; oral-gavage (directly into the stomach), 8 Days): −2.3%
- % of i.v. loss over the same time (ob/ob mice [4]; oral-gavage, 8 Days): 38%
- Body weight loss (ob/ob mice [4]; oral-water (in the drinking water), 8 Days): −4.3%
- % of i.v. loss over the same time (ob/ob mice [4]; oral-water, 8 Days): 72%
- % of i.v. loss over the same time (ob/ob mice [4]; oral-water, 20 Days): 68%
- Body weight loss (ob/ob mice [4]; oral-water, 20 Days): −6.1%
- weight-loss efficacy of oral dosing relative to intravenous administration (ob/ob mice [4]; same dose): ≤ 75%
- weight loss (ob/ob mice [5]; from a 90 g mouse, in about 3 weeks): 8 to 10 g
- outcome of long-term daily administration (ob/ob mice [5]; ob/ob mice): cessation of weight loss
